# How the values were obtained:
# [1] = target: EGFR of HaCaT (human keratinocyte) cells (human), P00533; experiment: cell-based or functional assay
# EGFR-Fc, P00533 = experiment: TR-FRET competitive displacement of biotin-EGF from EGFR-Fc
binder,measurement,setting,value
QCKPNGAKCTEISIPPCCSNFCLRYAGQKSGTCANR (modifications not checked) [bleogen pB1],"HaCaT cell proliferation (crystal violet, 72 h), EC50",[1],130 nM
same,IC50,"EGFR-Fc, P00533",1720 nM
